In the supplement of paper PMC9233669:
This sample holds only a part of the variants without activity.

How the values were obtained:
[1] = system: biotinyl-Phe-oxazolone; assay: self-aminoacylation, catalytic enhancement (BFO) (fold over background); higher = more active; k-Seq, kA / k0A0; sequences stand for … in GGGAAUGGAUCCACAUCUACGAAUUC…UUCACUGCAGACUUGACGAAGCUG
Summary of the method: (§1)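 Mutagenized RNA pools with a 21-nt variable region (0.43 μM) reacted with each biotinyl-aminoacyl-oxazolone at 2–1250 μM. Reactions ran in 50 μL HEPES/NaCl/KCl/MgCl2/CaCl2 buffer with 5% acetonitrile, pH 6.9–7.0, for 90 minutes at room temperature. Streptavidin-captured RNA was quantified by triplicate qPCR and Illumina sequencing, and per-sequence fraction reacted was fit to a pseudo-first-order model with 1000 bootstraps. Catalytic enhancement is median kA divided by the uncatalyzed rate, the low-activity peak of a bimodal Gaussian fit.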

[2] = system: biotinyl-Ile-oxazolone; assay: self-aminoacylation, catalytic enhancement (BIO) (fold over background); higher = more active; k-Seq, kA / k0A0; sequences stand for … in GGGAAUGGAUCCACAUCUACGAAUUC…UUCACUGCAGACUUGACGAAGCUG
Summary of the method: as §1

[3] = system: biotinyl-Met-oxazolone; assay: self-aminoacylation, catalytic enhancement (BMO) (fold over background); higher = more active; k-Seq, kA / k0A0; sequences stand for … in GGGAAUGGAUCCACAUCUACGAAUUC…UUCACUGCAGACUUGACGAAGCUG
Summary of the method: as §1

[4] = system: biotinyl-Val-oxazolone; assay: self-aminoacylation, catalytic enhancement (BVO) (fold over background); higher = more active; k-Seq, kA / k0A0; sequences stand for … in GGGAAUGGAUCCACAUCUACGAAUUC…UUCACUGCAGACUUGACGAAGCUG
Summary of the method: as §1

[5] = system: biotinyl-Leu-oxazolone; assay: self-aminoacylation, catalytic enhancement (BLO) (fold over background); higher = more active; k-Seq, kA / k0A0; sequences stand for … in GGGAAUGGAUCCACAUCUACGAAUUC…UUCACUGCAGACUUGACGAAGCUG
Summary of the method: as §1

[6] = system: biotinyl-Trp-oxazolone; assay: self-aminoacylation, catalytic enhancement (BWO) (fold over background); higher = more active; k-Seq, kA / k0A0; sequences stand for … in GGGAAUGGAUCCACAUCUACGAAUUC…UUCACUGCAGACUUGACGAAGCUG
Summary of the method: as §1

| Sequence | self-aminoacylation [1] | self-aminoacylation [2] | self-aminoacylation [3] | self-aminoacylation [4] | self-aminoacylation [5] | self-aminoacylation [6] |
| --- | --- | --- | --- | --- | --- | --- |
| AAGUUCGCUAAUAGUCGGAAG [Fam3.1 aminoacylation ribozyme variant] | 2.48 | 1.2 | 0.621 | 0.743 | 1.17 | 1.07 |
| AUUACCUUGGUCAUCGAUUGA [Fam2.1 aminoacylation ribozyme variant] | 0.71 | 0.907 | 0.916 | 0.824 | 0.855 | 0.601 |
| AUUCCCCUUGGUCAUCGGGUG [Fam2.2 aminoacylation ribozyme variant] | 165 | 13.4 | 20.4 | 13.7 | 27.4 | 18.9 |
| AUUACCCUGGUCAUCGAAUAA [Fam2.1 aminoacylation ribozyme variant] | 0.904 | 0.801 | 0.987 | 1.15 | 0.914 | 1.41 |
| CCACAUUUCAAGCAAUCGGUG [Fam1B.1 aminoacylation ribozyme variant] | 59.1 | 6.23 | 8.9 | 5.89 | 12.9 | 9.35 |
| AUUACCUUGUUCAUCGAGUGA [Fam2.1 aminoacylation ribozyme variant] | 26.1 | 3.4 | 6.95 | 3.95 | 6.6 | 8.47 |
| CUACUUCAAAAAGUCGGUCUG [Fam1A.1 aminoacylation ribozyme variant] | 0.598 | 0.876 | 0.856 | 0.773 | 0.779 | 0.579 |
| AUAUCCCUGGUCAUCGAGUGA [Fam2.1 aminoacylation ribozyme variant] | 10.5 | 5.36 | 10.3 | 5.25 | 9.81 | 11.8 |
| AUUCACCUCGGUCUUCGGGUG [Fam2.2 aminoacylation ribozyme variant] | 33 | 3.77 | 3.71 | 4.01 | 6.72 | 4.87 |
| AUUACCCUGGUCAACGAGGGA [Fam2.1 aminoacylation ribozyme variant] | 1.26 | 1.49 | 1.49 | 1.56 | 1.85 | 2.56 |
| CUACUUCAAACAACCGGUCUG [Fam1A.1 aminoacylation ribozyme variant] | 1.07 | 0.874 | 0.729 | 0.845 | 0.791 | 0.844 |
| AAUCACCUAAGUCAUCGGGUG [Fam2.2 aminoacylation ribozyme variant] | 44.5 | 4.89 | 6.3 | 4.44 | 7.68 | 7.91 |
| CUUCUUCAAACAAUCGGCCUG [Fam1A.1 aminoacylation ribozyme variant] | 31.1 | 1.34 | 1.72 | 1.48 | 1.88 | 28.5 |
| AAGUUUGCUAAUAGUCACGAG [Fam3.1 aminoacylation ribozyme variant] | 1.54 | 1.26 | 1.33 | 1.22 | 0.881 | 1.34 |
| CUACGUCAAACUAUCGGUCUG [Fam1A.1 aminoacylation ribozyme variant] | 5.88 | 1.58 | 1.95 | 1.76 | 1.72 | 1.58 |
| AUUCACCUGGGUAAUCGGGUG [Fam2.2 aminoacylation ribozyme variant] | 30.1 | 3.15 | 4.71 | 2.88 | 5.16 | 4.84 |
| AAGUUUGCUAAUAGUGGCAAA [Fam3.1 aminoacylation ribozyme variant] | 0.91 | 1.09 | 0.891 | 1.04 | 0.789 | 1.24 |
| AUUCACCUAGGUAAUCGGGUG [Fam2.2 aminoacylation ribozyme variant] | 17.5 | 1.85 | 2.8 | 1.85 | 3.64 | 2.81 |
| AUUCACCUAGGACAUCGGAUG [Fam2.2 aminoacylation ribozyme variant] | 0.553 | 0.988 | 1.06 | 1.29 | 0.999 | 0.529 |
| CCACACUUCCAGAAAUCGGUC [Fam1B.1 aminoacylation ribozyme variant] | 1.69 | 0.933 | 0.808 | 1.06 | 1.13 | 0.976 |
| UAGUUUGCUAAUAGUCGCAAA [Fam3.1 aminoacylation ribozyme variant] | 1.58 | 1.95 | 1.75 | 1.38 | 1.53 | 2.06 |
| AUUACCCUGGUCAUCUAAUGA [Fam2.1 aminoacylation ribozyme variant] | 0.963 | 0.967 | 1.06 | 0.917 | 0.908 | 0.586 |
| CCACACCUCAAGCAAUCGAUC [Fam1B.1 aminoacylation ribozyme variant] | 0.758 | 0.643 | 0.442 | 0.76 | 0.553 | 0.298 |
| AAGUUUGGUAAUAGUCCCAAG [Fam3.1 aminoacylation ribozyme variant] | 1.39 | 1.32 | 1.05 | 0.864 | 0.963 | 1.04 |
| ACACACUGCAAGCAAUCGGUC [Fam1B.1 aminoacylation ribozyme variant] | 1.36 | 1.43 | 1.23 | 1.33 | 1.48 | 1.73 |
| CUAAUUCAAACAAUCGGUGUG [Fam1A.1 aminoacylation ribozyme variant] | 0.924 | 0.75 | 0.913 | 0.659 | 1.01 | 0.691 |

| Sequence | self-aminoacylation [1] | self-aminoacylation [2] | self-aminoacylation [3] | self-aminoacylation [4] | self-aminoacylation [5] | self-aminoacylation [6] |
| --- | --- | --- | --- | --- | --- | --- |
| AUACAGCUAGGUCAUCGGGUG [Fam2.2 aminoacylation ribozyme variant] | 25.1 | 3.25 | 2.96 | 3.09 | 4.04 | 3.64 |
| CUAGUUCAAACAAUCGGUCUC [Fam1A.1 aminoacylation ribozyme variant] | 9.67 | 0.896 | 0.795 | 0.863 | 1.25 | 5.9 |
| UGACACUUCAAGCAAUCGGUC [Fam1B.1 aminoacylation ribozyme variant] | 21.5 | 1.84 | 1.33 | 1.37 | 1.89 | 14.5 |
| AAGGUUGCUAAAAGUCGCAAG [Fam3.1 aminoacylation ribozyme variant] | 4.28 | 1.62 | 1.52 | 1.67 | 1.6 | 1.93 |
| AUUCACCUAGGUUAUCGAGUG [Fam2.2 aminoacylation ribozyme variant] | 2.32 | 1.4 | 1.97 | 1.42 | 2.35 | 1.89 |
| AUUAGCCUGGACAUCGAGUGA [Fam2.1 aminoacylation ribozyme variant] | 45.3 | 3.91 | 8.78 | 3.53 | 9.56 | 8.52 |
| AAGUUUGAUAAUAGUAGCAAG [Fam3.1 aminoacylation ribozyme variant] | 0.835 | 0.724 | 0.756 | 0.691 | 0.535 | 0.667 |
| AAGUGGGCUAAUAGUCGCAAG [Fam3.1 aminoacylation ribozyme variant] | 2.27 | 1.6 | 1.56 | 1.32 | 1.44 | 1.73 |
| AUUGCCUUGGUCAUCGAGUGA [Fam2.1 aminoacylation ribozyme variant] | 48.9 | 4.46 | 8.02 | 4.83 | 8.79 | 8.73 |
| CUACUUCAAACAAUCUUUCUG [Fam1A.1 aminoacylation ribozyme variant] | 5.42 | 0.747 | 0.771 | 0.898 | 0.658 | 2.33 |
| AUUCACAUAGGUGAUCGGGUG [Fam2.2 aminoacylation ribozyme variant] | 20.5 | 3.05 | 3.4 | 3.14 | 3.56 | 3.79 |
| AUUGACCUAGGUUAUCGGGUG [Fam2.2 aminoacylation ribozyme variant] | 29.1 | 4.71 | 4.96 | 4.7 | 5.36 | 6.6 |
| CUACUUCGAACAAUCGGUCGG [Fam1A.1 aminoacylation ribozyme variant] | 2.37 | 1.02 | 1.34 | 0.922 | 1.41 | 0.974 |
| UAGUUUGCUAAUAGUCCCAAG [Fam3.1 aminoacylation ribozyme variant] | 2.1 | 1.03 | 0.851 | 0.864 | 0.805 | 1.37 |
| CUACUUCAAACAAACGGCCUG [Fam1A.1 aminoacylation ribozyme variant] | 0.719 | 1.38 | 1.01 | 1.13 | 1.18 | 0.967 |
| CUACUUCAAAGAAUCAGUCUG [Fam1A.1 aminoacylation ribozyme variant] | 3.34 | 0.759 | 0.677 | 0.803 | 0.68 | 1.7 |
| UUUACCCUGGUCAUCGAGUGA [Fam2.1 aminoacylation ribozyme variant] | 428 | 24.6 | 68.9 | 27 | 60.9 | 71.3 |
| AUGCACCUAGGUAAUCGGGUG [Fam2.2 aminoacylation ribozyme variant] | 10.9 | 2.07 | 2.56 | 1.94 | 2.31 | 3.25 |
| CUACUUCGAACAAUCGGUCCG [Fam1A.1 aminoacylation ribozyme variant] | 2.05 | 0.879 | 1.09 | 0.738 | 0.865 | 0.959 |
| CAGUUUGCUAAUAGUCGCCAG [Fam3.1 aminoacylation ribozyme variant] | 10.1 | 1.86 | 1.91 | 2.17 | 2.43 | 2.45 |
| CUAGUUCAAACAAUCGGUGUG [Fam1A.1 aminoacylation ribozyme variant] | 1.63 | 0.992 | 1.4 | 0.947 | 1.63 | 1.79 |
| CAACACUUCAAGCAAUCAGUC [Fam1B.1 aminoacylation ribozyme variant] | 14.5 | 0.858 | 0.716 | 0.772 | 0.923 | 4.78 |
| AAGUUUGCUAAUAGGUGCAAG [Fam3.1 aminoacylation ribozyme variant] | 0.732 | 0.728 | 0.706 | 0.836 | 0.609 | 0.526 |
| CCACACUUCAAGGAAUCGGCC [Fam1B.1 aminoacylation ribozyme variant] | 1.42 | 1.89 | 2.08 | 2.4 | 2.39 | 4.4 |
| AUUCACCUAAGUCAUCCGGUG [Fam2.2 aminoacylation ribozyme variant] | 63.4 | 5.54 | 9.71 | 5.61 | 12.2 | 10.3 |
